{"source": "paper PMC8000039", "about": "“Toxin-Activating Stapled Peptides Discovered by Structural Analysis Were Identified as New Therapeutic Candidates That Trigger Antibacterial Activity against Mycobacterium tuberculosis in the Mycobacterium smegmatis Model” (Microorganisms, 2021)", "key": {"[1]": {"test_system": "VapBC26-harboring M. smegmatis", "experiment": "Confocal microscopy of FITC-labeled peptides (cell permeability)", "assay_type": "cell-based, Mycobacterium smegmatis", "settings": "FITC-labeled peptide 10 μM, 1 h, 37 °C, trypsin to degrade surface-bound and extracellular peptide, two independent experiments", "protocol": "Confocal microscopy was used to assess the permeability of M. smegmatis using FITC-labeled peptides. Cultures of M. smegmatis grown in complete 7H9 medium to mid-logarithmic phase (OD600 0.3–0.5) were diluted 5-fold with Muller-Hinton broth (BD Biosciences, Franklin Lakes, NJ, USA). Diluted cell suspensions were aliquoted into Eppendorf tubes and treated with 10 μM peptide. After 1 h of incubation at 37 °C and 100 rpm, the cell suspensions were washed with PBS. If successful internalization of FITC-labeled peptides is achieved, then fluorescence will be detected in the images. Surface-bound peptides and extracellular peptides were degraded by trypsin, and thus remained fluorescence signals in the images indicate the indeed internalization of peptide. Images were acquired on a TCS8 confocal scope (Leica Microsystems, Wetzlar, Germany) with a 63× oil immersion objective."}, "[2]": {"test_system": "VapBC26-expressing M. smegmatis mc2155 cells", "assay_type": "cell-based, Mycobacterium smegmatis"}, "[3]": {"experiment": "CD spectroscopy, helicity calculated by CDNN software", "assay_type": "physicochemical", "settings": "50 μM peptide, 10 mM potassium phosphate pH 7, 100 mM ammonium sulfate, 20 °C, average of three scans", "protocol": "CD measurements were conducted at 20 °C using a Chirascan Plus spectropolarimeter (Applied Photophysics, Leatherhead, UK) in a cuvette with a 1 mm path length. The peptide samples were prepared at 50 μM in buffer consisting of 10 mM potassium phosphate (pH 7) and 100 mM ammonium sulfate. CD scans were taken from 180 nm to 260 nm at a speed of 100 nm/min with a 1 nm bandwidth. The helicity of each peptide was calculated by CDNN software."}}, "data": [{"substance": "VapC26 α4_54–65: linear α4-mimicking peptide of VapC26 (residues 54–65), from the authors' previous study (DAELAVLRELAG; UniProt O53779 54-65, looked up, fragment)", "values": [{"measurement": "cell penetration / uptake, fluorescence signal inside the cells", "setting": "[1]", "result": "barely observed"}, {"measurement": "effect on cell growth (OD600) compared with control cells", "setting": "[2]", "result": "only a slight effect"}, {"measurement": "Helicity (α-helical propensity)", "setting": "[3]", "result": 20.8, "unit": "%"}]}]}
